Molecular target: endogenous NFκB2 p100 (mouse (endogenous in NFκB2+/+ MEFs)) (UniProt Q9WTK5)
Assay: immunodepletion

Chain of UniProt Q9WTK5 (Q9WTK5 whole entry): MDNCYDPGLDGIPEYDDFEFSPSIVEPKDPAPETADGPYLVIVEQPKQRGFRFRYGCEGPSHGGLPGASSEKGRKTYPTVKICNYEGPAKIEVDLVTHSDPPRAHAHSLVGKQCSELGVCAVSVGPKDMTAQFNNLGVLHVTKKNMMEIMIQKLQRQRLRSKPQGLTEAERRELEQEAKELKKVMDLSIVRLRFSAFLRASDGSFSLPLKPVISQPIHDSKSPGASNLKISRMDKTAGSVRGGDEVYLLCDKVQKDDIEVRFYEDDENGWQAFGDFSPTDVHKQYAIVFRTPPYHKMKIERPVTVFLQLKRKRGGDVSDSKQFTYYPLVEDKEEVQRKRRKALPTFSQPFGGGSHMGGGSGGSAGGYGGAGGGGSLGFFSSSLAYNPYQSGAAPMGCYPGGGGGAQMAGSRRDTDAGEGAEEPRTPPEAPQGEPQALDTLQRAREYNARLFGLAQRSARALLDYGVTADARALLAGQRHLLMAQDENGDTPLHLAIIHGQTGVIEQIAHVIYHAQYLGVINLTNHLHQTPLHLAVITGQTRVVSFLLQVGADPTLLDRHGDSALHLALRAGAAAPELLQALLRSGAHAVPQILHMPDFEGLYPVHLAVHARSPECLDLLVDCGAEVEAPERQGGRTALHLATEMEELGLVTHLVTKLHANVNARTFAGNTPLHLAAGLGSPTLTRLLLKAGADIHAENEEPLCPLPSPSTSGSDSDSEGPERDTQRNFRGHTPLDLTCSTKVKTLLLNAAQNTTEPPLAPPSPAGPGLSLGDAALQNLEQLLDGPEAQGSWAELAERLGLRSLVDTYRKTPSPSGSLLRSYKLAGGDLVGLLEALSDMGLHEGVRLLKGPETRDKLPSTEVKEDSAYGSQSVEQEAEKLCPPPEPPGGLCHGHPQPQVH

- percent of endogenous ERK2 pulled down with p100 (immunodepletion): 46%
Substance: endogenous ERK2 (from UniProt P63085 1-358) (natural protein)
